Results as given in patent US20210054048A1.

Molecular target: alcohol dehydrogenase (ADH)
Experiment: cell-based or functional assay

CryS96 (αB-crystallin peptide fused with ELP S96)
decrease in ADH aggregation (optical density at 360 nm, 48° C., 2 h): 61%
